According to PMC4293345 (Molecular and cellular neurosciences, 2014):
Like-named read-outs stand apart in the source and are kept apart here.

Assays:
[1] = molecular target: T1, MBP-tagged NCS-1 (neuronal calcium sensor-1) (UniProt P62166 1-190); assay: pull-down
[2] = molecular target: T1, MBP-tagged NCS-1 (neuronal calcium …); assay: pull-down; remark: listed apart in the source

T1 sequence (P62166 whole entry): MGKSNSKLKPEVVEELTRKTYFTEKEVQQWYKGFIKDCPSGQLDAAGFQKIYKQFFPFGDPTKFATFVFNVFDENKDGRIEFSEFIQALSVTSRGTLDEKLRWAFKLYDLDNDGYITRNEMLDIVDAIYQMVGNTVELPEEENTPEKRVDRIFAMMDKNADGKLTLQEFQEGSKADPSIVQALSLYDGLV

B1: GST-tagged IQ-like domain of CaV2.1 (domain or fragment)
chain: LMALIRTALDIKIAKGGADKQQMDAELRKEMMAIWPNLSQKTLDLLVTPHKSTDLTVGKIYAAMMIMEYYRQSKAKKLQAMREEQNRTPLMFQRMEPPSPTQEGGPSQNALPSTQLD
Question: Which “relative binding (ratio of IQ-GST to NCS-1-MBP)” value [1] does the source give for B1 here?
Answer: 0.56 ± 0.06

Question: What about the “relative binding (ratio of IQ-GST to NCS-1-MBP)” value [2] of the same binder?
Answer: 0.57 ± 0.06
